B1: anti-CD16a antibody F9H4 (antibody, V domains shown)
VH: QVQLQQPGSELVRPGASVKLSCKASGYTFTSYWMHWVKQRHGQGLEWIGNIYPGSGSTNYDEKFKSKGTLTVDTSSSTAYMHLGSLTSEDSAVYYCTMRYGGYYGYYFDYWGQGTTLTVSS
VL: EIVLTQSPTTMAASPGEKITITCSTTSSISSNYLHWYQQKPGFSPKLLIYRTSNLASGVPARFSGSGSGTSYSLTIGTMEAEDVATYYCQQGSSIPLTFGAGTKLELKR
notes: also called F9H14
B2: biotinylated human CD64 protein (receptor, UniProt P12314 16-288, looked up)
chain: QVDTTKAVITLQPPWVSVFQEETVTLHCEVLHLPGSSSTQWFLNGTATQTSTPSYRITSASVNDSGEYRCQRGLSGRSDPIQLEIHRGWLLLQVSSRVFTEGEPLALRCHAWKDKLVYNVLYYRNGKAFKFFHWNSNLTILKTNISHNGTYHCSGMGKHRYTSAGISVTVKELFPAPVLNASVTSPLLEGNLVTLSCETKLLLQRPGLQLYFSFYMGSKTLRGRNTSSEYQILTARREDSGLYWCEAATEDGNVLKRSPELELQVLGLQLPTP
modifications: biotinylated
notes: also called human Fc receptor CD64
B3: anti-CD16a antibody 3G8 (antibody)
chain 1: QVTLKESGPGILQPSQTLSLTCSFSGFSLRTSGMGVGWIRQPSGKGLEWLAHIWWDDDKRYNPALKSRLTISKDTSSNQVFLKIASVDTADTATYYCAQINPAWFAYWGQGTLVTVS
chain 2: DIVLTQSPASLAVSLGQRATISCKASQSVDFDGDSFMNWYQQKPGQPPKLLIYTTSNLESGIPARFSASGSGTDFTLNIHPVEEEDTATYYCQQSNEDPYTFGGGTKLELK
B4: chF9H4-DANA, chimeric F9H4 with hIgG1 CH2-CH3 carrying D265A N297A (antibody)
heavy: QVQLQQPGSELVRPGASVKLSCKASGYTFTSYWMHWVKQRHGQGLEWIGNIYPGSGSTNYDEKFKSKGTLTVDTSSSTAYMHLGSLTSEDSAVYYCTMRYGGYYGYYFDYWGQGTTLTVSSAKTTAPSVYPLAPVCGDTTGSSVTLGCLVKGYFPEPVTLTWNSGSLSSGVHTFPAVLQSDLYTLSSSVTVTSSTWPSQSITCNVAHPASSTKVDKKIEPRGPTIKPCPPCKCPAPELLGGPSVFLFPPKPKDTLMISRTPEVTCVVVAVSHEDPEVKFNWYVDGVEVHNAKTKPREEQYASTYRVVSVLTVLHQDWLNGKEYKCKVSNKALPAPIEKTISKAKGQPREPQVYTLPPSRDELTKNQVSLTCLVKGFYPSDIAVEWESNGQPENNYKTTPPVLDSDGSFFLYSKLTVDKSRWQQGNVFSCSVMHEALHNHYTQKSLSLSPGK
light: EIVLTQSPTTMAASPGEKITITCSTTSSISSNYLHWYQQKPGFSPKLLIYRTSNLASGVPARFSGSGSGTSYSLTIGTMEAEDVATYYCQQGSSIPLTFGAGTKLELKRADAAPTVSIFPPSSEQLTSGGASVVCFLNNFYPKDINVKWKIDGSERQNGVLNSWTDQDSKDSTYSMSSTLTLTKDEYERHNSYTCEATHKTSTSPIVKSFNRNEC
notes: also called chF8H4-DANA; F9H4-hIG1-DANA; copies: 2 + 2

Assays:
[1] = molecular target: T1, recombinant CD16a D2 domain (UniProt P08637 107-208, limits assumed); test: ELISA, immobilised CD16a D2 domain [panel D2]
T1 construct: domain: D2
T1 sequence (P08637 107-208 limits assumed): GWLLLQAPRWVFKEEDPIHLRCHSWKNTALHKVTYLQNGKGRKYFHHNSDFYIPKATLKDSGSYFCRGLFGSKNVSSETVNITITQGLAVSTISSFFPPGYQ
Description: FIGS. 4A, 4B, 4C, 4D, 4E, and 4F illustrate the characterization of F9H4. FIG. 4A. An ELISA was performed with immobilized F9H4 or the positive controls, respectively. For detection, biotinylated antibodies against the indicated subclasses of murine IgG were used. From left to right: Anti-mIgG1, anti-mIgG2a, anti-mIgG2b, anti-mIgG3. FIG. 4B. Validation of a bead assay to assess CD16a binding to hIgG1. […] Two left peaks (overlapping): uncoated and DANA mutant. Right peak: hIgG1. FIG. 4C. Bead assay for CD16a binding to hIgG1. hIgG1-coated beads were incubated with 1 μg/mL biotinylated CD16a plus the indicated antibodies, followed by incubation with PE-labelled streptavidin and analysis by flow cytometry. Peaks from left to right: 30, 10, 3, and 1 μg/mL. FIG. 4D. Jukart cells were engineered to express human CD16a and luciferase in response to CD16a engagement. Cells were treated overnight with the indicated antibodies, followed by addition of luciferin and analyses in plate reader. […] Data represent two (FIG. 4D) or three (FIGS. 4A, 4B, 4C, and 4F) independent experiments, are mean+/−SE of quadruplicates (FIG. 4 D), and were analyzed by non-linear regression (FIGS. 4D and 4F).
To shed light into the mechanism by which F9H4 inhibit the cleavage, the two immunoglobulin-like domains, D1 and D2 of CD16a were examined. […] It was determined by ELISA that F9H4 binds full length CD16a and D1, but not D2. […]

[2] = molecular target: T2, human CD16a protein (human, UniProt P08637 17-208, biotinylated in the bead assay (FIG. 4B, 4C)); test: ELISA on human CD16a protein
T2 construct: construct not described; also called biotinylated CD16a; FcγRIIIa
T2 sequence (P08637 17-208 limits assumed): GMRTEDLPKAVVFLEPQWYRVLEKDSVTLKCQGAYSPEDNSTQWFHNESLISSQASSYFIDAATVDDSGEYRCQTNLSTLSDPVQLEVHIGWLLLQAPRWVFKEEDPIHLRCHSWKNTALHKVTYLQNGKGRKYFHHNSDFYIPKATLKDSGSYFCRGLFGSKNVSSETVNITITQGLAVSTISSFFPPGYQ

[3] = molecular target: T3, hIgG wild type; test: ELISA, immobilised antibody detected with biotinylated human CD64
T3 construct: it may be the same as hIgG1
Description: (§1) FIGS. 7A, 7B, and 7C illustrate the properties of chF9H4-DANA, a chimeric antibody in which the variable and the CH1 region of F9H4 is fused to the CH2 and CH3 regions of hIgG1 comprising a D265A N297A (DANA) mutation (labeled as “F9H4-hIG1-DANA” in FIGS. 7A, 7B, and 7C). FIG. 7A. The indicated antibodies were immobilized in ELISA plates and detected by biotinylated human CD64 protein, which was added in the indicated concentrations. Highest absorbance for hIgG wild type. FIG. 7B. ELISA for reactivity of antibodies against human CD16a. Highest absorbance for F9H4-hIG1-DANA. FIG. 7C. Inhibition of CD16a shedding assay with primary NK cells that were treated with 30 ng/mL PMA to induce CD16a shedding. Highest absorbance for F9H4-hIG1-DANA. Data represent three independent experiments (FIGS. 7A, 7B, and 7C) and mean+/−SD of triplicates even though the SD bars are so small that cannot be seen (FIG. 7C).

[4] = molecular target: human CD16a on cells (primary NK cells; engineered reporter cells) (human, UniProt P08637 17-254); test: cell-based or functional assay
Sequence of human CD16a on cells (primary NK cells; engineered reporter cells) (P08637 17-254, change not shown): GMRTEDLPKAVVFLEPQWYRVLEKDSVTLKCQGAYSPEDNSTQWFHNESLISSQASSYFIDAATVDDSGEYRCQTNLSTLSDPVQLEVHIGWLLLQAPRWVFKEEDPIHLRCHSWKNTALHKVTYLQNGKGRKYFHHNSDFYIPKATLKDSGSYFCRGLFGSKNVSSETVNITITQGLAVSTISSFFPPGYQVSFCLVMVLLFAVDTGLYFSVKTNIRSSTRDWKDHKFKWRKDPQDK

[5] = molecular target: B2; test: ELISA, immobilised antibody detected with biotinylated human CD64
Description: as §1

[6] = molecular target: T2, human CD16a protein; test: ELISA on human CD16a

## B1
[1]
  binding result: no binding (tested: 10 µg/mL)
[2]
  EC50 (read off the curve): ~0.001 µg/mL

## B2
[3]
  EC50 (read off the curve): ~0.006 µg/mL

## B3
[4]
  EC50 (read off the curve), luciferase reporter of CD16a engagement (RLU): ~0.1 µg/mL

## B4
[5]
  binding result: no binding (tested: 1 µg/mL)
[6]
  EC50 (read off the curve): ~0.04 µg/mL

Source: patent publication US20260028405A1 (ICAHN SCHOOL OF MEDICINE AT MOUNT SINAI, published 2026)
